Experimental findings from the supplement of paper PMC9112550, “Optimization of the antimicrobial peptide Bac7 by deep mutational scanning” (BMC Biology, 2022) are described below.

The test system of this data set is Escherichia coli TOP10. In words: shrunken log2 fold change of peptide-encoding DNA abundance (4.5 h post-induction vs induction); higher = less antimicrobial activity (less host growth inhibition). As to conditions: time post-induction: 4.5 h; library: site-saturation at positions 5, 18, 19, 20.
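Also: peptides expressed intracellularly from a pBAD plasmid library in pooled LB shake-flask culture, induced with 0.3% L-arabinose, DNA abundance read by NGS, three biological replicates, DESeq2 with apeglm shrinkage.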

On to RRIRSRPPRLPRPRPRPKWMPRP, for which the “shrunken log2 fold change” value came out at 0.269.
RRIRGRPPRLPRPRPRPLRFPRP: the “shrunken log2 fold change” value came to 0.917.
Consider RRIRIRPPRLPRPRPRPYEIPRP, for which the “shrunken log2 fold change” value is -0.811.
In the case of RRIRWRPPRLPRPRPRPAATPRP, the “shrunken log2 fold change” value is 2.26.
For RRIRGRPPRLPRPRPRPYFSPRP, the “shrunken log2 fold change” value was -0.00993.
As to RRIRWRPPRLPRPRPRPVAAPRP, the “shrunken log2 fold change” value was 0.855.
With RRIRERPPRLPRPRPRPIYTPRP, the “shrunken log2 fold change” value is 0.036.
As to RRIRCRPPRLPRPRPRPILEPRP, the “shrunken log2 fold change” value is -0.247.
Take RRIRHRPPRLPRPRPRPDCAPRP: the “shrunken log2 fold change” value stood at 0.196.
The value for RRIRARPPRLPRPRPRPFSSPRP was -0.159; that for RRIRCRPPRLPRPRPRPSSIPRP was -0.565; that for RRIRSRPPRLPRPRPRPFIRPRP was -0.412.
In the case of RRIRERPPRLPRPRPRPCGQPRP, the “shrunken log2 fold change” value is -0.0982.
The value for RRIRARPPRLPRPRPRPGMAPRP was 0.709.
RRIRMRPPRLPRPRPRPMDSPRP: the “shrunken log2 fold change” value turned out to be 0.0342.
With RRIRMRPPRLPRPRPRPIEMPRP, the “shrunken log2 fold change” value was -0.0608.
On to RRIRQRPPRLPRPRPRPYSRPRP, for which the “shrunken log2 fold change” value is -0.0567.
With RRIRCRPPRLPRPRPRPPYCPRP, the “shrunken log2 fold change” value was -0.365.
On to RRIRSRPPRLPRPRPRPLGKPRP, for which the “shrunken log2 fold change” value was 2.2.
For RRIRKRPPRLPRPRPRPAVLPRP, the “shrunken log2 fold change” value was -0.025.
With RRIRYRPPRLPRPRPRPEVRPRP, the “shrunken log2 fold change” value is -0.187.
Take RRIRFRPPRLPRPRPRPVEHPRP: the “shrunken log2 fold change” value is -0.0778.
On to RRIRQRPPRLPRPRPRPACLPRP, for which the “shrunken log2 fold change” value was 0.14.
Take RRIRMRPPRLPRPRPRPATMPRP: the “shrunken log2 fold change” value was determined as 0.256.
RRIRFRPPRLPRPRPRPNVRPRP: the “shrunken log2 fold change” value was 0.0987.
As for RRIRKRPPRLPRPRPRPKVHPRP, the “shrunken log2 fold change” value is 0.243.
The value for RRIRGRPPRLPRPRPRPVRRPRP was 0.977; that for RRIRWRPPRLPRPRPRPEVVPRP was -0.0122; that for RRIRIRPPRLPRPRPRPNMRPRP was -0.374.
For the sequence RRIRGRPPRLPRPRPRPAILPRP, the “shrunken log2 fold change” value was -0.0316.
As to RRIRLRPPRLPRPRPRPVECPRP, the “shrunken log2 fold change” value stood at 0.0709.
The value for RRIRLRPPRLPRPRPRPFERPRP was 0.198; that for RRIRMRPPRLPRPRPRPQGAPRP was 0.124.
Consider RRIRLRPPRLPRPRPRPRRCPRP, for which the “shrunken log2 fold change” value came out at 0.356.
The value for RRIRPRPPRLPRPRPRPQCKPRP was -0.398.
Consider RRIRKRPPRLPRPRPRPCYFPRP, for which the “shrunken log2 fold change” value was -0.00436.
For RRIRIRPPRLPRPRPRPYDLPRP the value was -0.427; for RRIRCRPPRLPRPRPRPYPFPRP, -0.241.
As to RRIRKRPPRLPRPRPRPKCLPRP, the “shrunken log2 fold change” value came to 0.118.
Regarding RRIRFRPPRLPRPRPRPTLEPRP, the “shrunken log2 fold change” value stood at 0.197.
Regarding RRIRTRPPRLPRPRPRPPEAPRP, the “shrunken log2 fold change” value is 0.205.
Take RRIRLRPPRLPRPRPRPIYMPRP: the “shrunken log2 fold change” value is -0.199.
With RRIRQRPPRLPRPRPRPIQFPRP, the “shrunken log2 fold change” value is -0.282.
For RRIRMRPPRLPRPRPRPHFTPRP, the “shrunken log2 fold change” value was -0.173.
As to RRIRARPPRLPRPRPRPQHAPRP, the “shrunken log2 fold change” value worked out at 0.269.
RRIRDRPPRLPRPRPRPSDQPRP: the “shrunken log2 fold change” value was 0.204.
For RRIRGRPPRLPRPRPRPAKPPRP the value was 0.82.
Turning to RRIRCRPPRLPRPRPRPWVHPRP, the “shrunken log2 fold change” value was -0.169.
The value for RRIRWRPPRLPRPRPRPSERPRP was 0.415; that for RRIRIRPPRLPRPRPRPDKIPRP was -0.0602.
In the case of RRIRQRPPRLPRPRPRPLHKPRP, the “shrunken log2 fold change” value was 0.0733.
Consider RRIRARPPRLPRPRPRPCWGPRP, for which the “shrunken log2 fold change” value amounted to 0.205.
Consider RRIRERPPRLPRPRPRPKNTPRP, for which the “shrunken log2 fold change” value is -0.439.
For RRIRCRPPRLPRPRPRPVHDPRP the value was 0.141; for RRIRDRPPRLPRPRPRPGDFPRP, -0.017.
Take RRIRCRPPRLPRPRPRPAESPRP: the “shrunken log2 fold change” value is 0.0971.
Regarding RRIRNRPPRLPRPRPRPCPIPRP, the “shrunken log2 fold change” value was -0.223.
Regarding RRIRPRPPRLPRPRPRPVARPRP, the “shrunken log2 fold change” value amounted to 0.245.
Regarding RRIRERPPRLPRPRPRPAGEPRP, the “shrunken log2 fold change” value was 0.0657.
As to RRIRMRPPRLPRPRPRPGILPRP, the “shrunken log2 fold change” value is 0.0644.
Regarding RRIRCRPPRLPRPRPRPDCQPRP, the “shrunken log2 fold change” value was -0.0895.
RRIRLRPPRLPRPRPRPLNHPRP: the “shrunken log2 fold change” value was -0.355.
In the case of RRIRPRPPRLPRPRPRPHKCPRP, the “shrunken log2 fold change” value is -0.19.
Turning to RRIRLRPPRLPRPRPRPWNQPRP, the “shrunken log2 fold change” value came out at 0.0295.
As for RRIRQRPPRLPRPRPRPNDHPRP, the “shrunken log2 fold change” value is -0.884.
For RRIRSRPPRLPRPRPRPNEVPRP the value was -0.131; for RRIRERPPRLPRPRPRPHWDPRP, -0.00134.
For RRIRQRPPRLPRPRPRPWDCPRP, the “shrunken log2 fold change” value was -0.383.
Turning to RRIRIRPPRLPRPRPRPSCMPRP, the “shrunken log2 fold change” value was -0.637.
The value for RRIRNRPPRLPRPRPRPATEPRP was 0.00868.
For the sequence RRIRYRPPRLPRPRPRPAEDPRP, the “shrunken log2 fold change” value is -0.176.
For RRIRTRPPRLPRPRPRPEVWPRP the value was 0.546; for RRIRFRPPRLPRPRPRPCNYPRP, -0.72; for RRIRHRPPRLPRPRPRPDDTPRP, -0.00674.
Consider RRIRNRPPRLPRPRPRPMQHPRP, for which the “shrunken log2 fold change” value was -0.0549.
RRIRERPPRLPRPRPRPRPFPRP: the “shrunken log2 fold change” value is -0.0965.
RRIRCRPPRLPRPRPRPEWCPRP: the “shrunken log2 fold change” value came out at 0.145.
The value for RRIRSRPPRLPRPRPRPEITPRP was -0.13; that for RRIRPRPPRLPRPRPRPGDMPRP was 0.00271.
For RRIRPRPPRLPRPRPRPKFIPRP the value was -0.308; for RRIRDRPPRLPRPRPRPVVCPRP, 0.26; for RRIRRRPPRLPRPRPRPFWRPRP, 0.0251.
With RRIRHRPPRLPRPRPRPKVRPRP, the “shrunken log2 fold change” value is -0.0711.
For the sequence RRIRFRPPRLPRPRPRPFFRPRP, the “shrunken log2 fold change” value is -0.213.
As for RRIRTRPPRLPRPRPRPPDHPRP, the “shrunken log2 fold change” value amounted to 0.112.
Take RRIRVRPPRLPRPRPRPMWHPRP: the “shrunken log2 fold change” value was 0.0166.
Consider RRIRTRPPRLPRPRPRPWFQPRP, for which the “shrunken log2 fold change” value was -0.195.
With RRIRTRPPRLPRPRPRPTSAPRP, the “shrunken log2 fold change” value is 0.587.
As for RRIRNRPPRLPRPRPRPLVPPRP, the “shrunken log2 fold change” value is -0.213.
Take RRIRFRPPRLPRPRPRPQATPRP: the “shrunken log2 fold change” value was -0.248.
Turning to RRIRMRPPRLPRPRPRPERNPRP, the “shrunken log2 fold change” value stood at 0.0507.
Consider RRIRCRPPRLPRPRPRPEKVPRP, for which the “shrunken log2 fold change” value stood at 0.0187.
In the case of RRIRWRPPRLPRPRPRPQTTPRP, the “shrunken log2 fold change” value was 0.206.
Consider RRIRCRPPRLPRPRPRPGEGPRP, for which the “shrunken log2 fold change” value is -0.0346.
Turning to RRIRIRPPRLPRPRPRPYGFPRP, the “shrunken log2 fold change” value was -0.0889.
In the case of RRIRERPPRLPRPRPRPHEMPRP, the “shrunken log2 fold change” value was -0.039.
Turning to RRIRKRPPRLPRPRPRPCQYPRP, the “shrunken log2 fold change” value is -0.26.
As for RRIRERPPRLPRPRPRPLGNPRP, the “shrunken log2 fold change” value is -0.477.
With RRIRQRPPRLPRPRPRPHMGPRP, the “shrunken log2 fold change” value is -0.512.
As for RRIRWRPPRLPRPRPRPYEVPRP, the “shrunken log2 fold change” value is -0.114.
Turning to RRIRTRPPRLPRPRPRPMSIPRP, the “shrunken log2 fold change” value is -0.143.
RRIRWRPPRLPRPRPRPYDDPRP: the “shrunken log2 fold change” value was -0.321.
For the sequence RRIRERPPRLPRPRPRPLQAPRP, the “shrunken log2 fold change” value was 0.167.
The value for RRIRTRPPRLPRPRPRPNWFPRP was -0.157; that for RRIRFRPPRLPRPRPRPQANPRP was -0.0788; that for RRIRDRPPRLPRPRPRPEVTPRP was -0.000921.
RRIRYRPPRLPRPRPRPKSPPRP: the “shrunken log2 fold change” value was 0.0245.
As to RRIRTRPPRLPRPRPRPCNRPRP, the “shrunken log2 fold change” value is -0.144.
Regarding RRIRYRPPRLPRPRPRPMLSPRP, the “shrunken log2 fold change” value was determined as 0.0215.
In the case of RRIRRRPPRLPRPRPRPECGPRP, the “shrunken log2 fold change” value was 0.938.
The value for RRIRWRPPRLPRPRPRPEMMPRP was 0.399; that for RRIRIRPPRLPRPRPRPLGIPRP was 0.132.
As for RRIRDRPPRLPRPRPRPFYCPRP, the “shrunken log2 fold change” value is -0.0803.
The value for RRIRWRPPRLPRPRPRPIGKPRP was -0.0958; that for RRIRDRPPRLPRPRPRPRLTPRP was 0.41; that for RRIRFRPPRLPRPRPRPGMNPRP was -0.147.
The value for RRIRIRPPRLPRPRPRPRVNPRP was -0.603.
For RRIRSRPPRLPRPRPRPEQMPRP the value was -0.0112.
For RRIRQRPPRLPRPRPRPCWVPRP, the “shrunken log2 fold change” value is -0.0437.
For RRIRFRPPRLPRPRPRPVRDPRP the value was 1.66.
The value for RRIRVRPPRLPRPRPRPLKWPRP was -0.235.
Regarding RRIRVRPPRLPRPRPRPLMSPRP, the “shrunken log2 fold change” value worked out at 0.0187.
The value for RRIRNRPPRLPRPRPRPEKVPRP was -0.105; that for RRIRGRPPRLPRPRPRPFKWPRP was -0.0584.
For the sequence RRIRHRPPRLPRPRPRPCEAPRP, the “shrunken log2 fold change” value is -0.136.
